Values quoted from earlier work as cited in paper PMC4449261.

Legend:
IL-4Rα1 (Homo sapiens) = IL-4Rα1 (Homo sapiens) (UniProt P24394)
IL-13Rα1 (Homo sapiens) = IL-13Rα1 (Homo sapiens) (UniProt P78552)
Sequence of UniProt P78552 (P78552 22-343): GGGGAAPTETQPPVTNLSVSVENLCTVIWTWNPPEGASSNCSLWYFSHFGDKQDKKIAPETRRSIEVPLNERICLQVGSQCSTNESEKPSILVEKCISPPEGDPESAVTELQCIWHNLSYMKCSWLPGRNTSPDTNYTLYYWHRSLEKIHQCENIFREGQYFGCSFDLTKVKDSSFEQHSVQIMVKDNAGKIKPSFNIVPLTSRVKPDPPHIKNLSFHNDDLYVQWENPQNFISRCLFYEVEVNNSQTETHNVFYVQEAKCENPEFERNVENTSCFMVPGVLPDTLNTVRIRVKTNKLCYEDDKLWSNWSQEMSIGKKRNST

Sequence of UniProt P24394 (P24394 26-232): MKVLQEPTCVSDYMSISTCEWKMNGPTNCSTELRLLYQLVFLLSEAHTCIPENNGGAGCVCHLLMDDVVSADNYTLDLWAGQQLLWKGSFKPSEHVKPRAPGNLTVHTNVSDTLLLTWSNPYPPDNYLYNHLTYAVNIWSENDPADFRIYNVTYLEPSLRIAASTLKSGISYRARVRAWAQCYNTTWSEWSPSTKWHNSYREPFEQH

Row | Substance | Kd (IL-4Rα1 (Homo sapiens)) [nM] | Kd (IL-13Rα1 (Homo sapiens)) [nM]
1 | IL-4 (from UniProt P05112) | 0.1 | –
2 | IL-13 (from UniProt P35225) | – | 4
